Tested on: B cells
Test: BAFF and APRIL B cell growth (viability signaling in B cells)
Format: cell-based
Conditions: added C5a, compared with disabling B cell C3aR/C5aR signaling, which suppressed growth (FIG. 3)
Source text: FIGS. 3(A-B) illustrate graphs showing BAFF and APRIL viability signaling in B cells depends on C3aR/C5aR signaling.
(FIGS. 1(A-C) and FIGS. 2(A-B)). […] (FIGS. 3(A-C)). […] (FIGS. 4(A-B)). Following ova immunization, recipients of adoptively transferred C3ar1^−/−C5ar1^−/− B cells produced reduced IgM Ab and no other isotypes.

B1: C5a: complement anaphylatoxin C5a, ligand of the C5a receptor (C5aR), added to B cells (protein, UniProt P01031 678-751, looked up)
C5a anaphylatoxin: TLQKKIEEIAAKYKHSVVKKCCYDGACVNNDETCEQRAARISLGPRCIKAFTECCVVASQLRANISHKDMQLGR
modifications: C5a anaphylatoxin
notes: complement anaphylatoxin C5a, ligand of the C5a receptor (C5aR), added to B cells
Q: How did the “BAFF and APRIL B cell growth” value turn out when B1 was run?
A: Its value is “opposite effect”.

Reference: patent US20230151084A1, “COMPOSITIONS AND METHODS OF […] CELL RESPONSE” (CASE WESTERN RESERVE UNIVERSITY, priority 2015, published 2023)
